# Like-named read-outs stand apart in the source and are kept apart here.
# How the values were obtained:
# Experiment in all cases: cell-based or functional assay
# human RXFP1 [1] = biological target: T1, human RXFP1 (human, UniProt Q9HBX9 1-757)
# T1 sequence (looked up): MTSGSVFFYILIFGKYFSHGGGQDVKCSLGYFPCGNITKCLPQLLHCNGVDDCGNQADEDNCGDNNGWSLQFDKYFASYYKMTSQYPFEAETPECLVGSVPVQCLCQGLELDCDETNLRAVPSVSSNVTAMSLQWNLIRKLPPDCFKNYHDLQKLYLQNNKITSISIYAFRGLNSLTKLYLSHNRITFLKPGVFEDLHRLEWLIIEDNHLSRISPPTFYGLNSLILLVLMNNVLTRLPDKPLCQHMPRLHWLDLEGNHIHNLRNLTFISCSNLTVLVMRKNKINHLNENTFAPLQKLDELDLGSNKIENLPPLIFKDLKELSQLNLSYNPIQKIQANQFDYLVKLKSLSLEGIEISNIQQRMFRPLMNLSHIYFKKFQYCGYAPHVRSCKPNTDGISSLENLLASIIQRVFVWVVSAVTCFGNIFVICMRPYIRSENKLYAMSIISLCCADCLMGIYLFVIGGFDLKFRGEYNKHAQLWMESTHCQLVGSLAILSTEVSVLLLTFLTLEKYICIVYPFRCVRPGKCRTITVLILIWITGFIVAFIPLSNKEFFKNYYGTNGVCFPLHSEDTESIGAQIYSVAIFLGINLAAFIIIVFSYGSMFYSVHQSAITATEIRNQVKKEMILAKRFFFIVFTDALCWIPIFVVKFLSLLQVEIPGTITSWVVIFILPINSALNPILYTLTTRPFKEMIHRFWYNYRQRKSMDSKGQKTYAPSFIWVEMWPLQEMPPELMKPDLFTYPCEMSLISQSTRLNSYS
# mouse RXFP1 [2] = biological target: T2, mouse RXFP1 (mouse, UniProt Q6R6I7 1-758)
# T2 sequence (looked up): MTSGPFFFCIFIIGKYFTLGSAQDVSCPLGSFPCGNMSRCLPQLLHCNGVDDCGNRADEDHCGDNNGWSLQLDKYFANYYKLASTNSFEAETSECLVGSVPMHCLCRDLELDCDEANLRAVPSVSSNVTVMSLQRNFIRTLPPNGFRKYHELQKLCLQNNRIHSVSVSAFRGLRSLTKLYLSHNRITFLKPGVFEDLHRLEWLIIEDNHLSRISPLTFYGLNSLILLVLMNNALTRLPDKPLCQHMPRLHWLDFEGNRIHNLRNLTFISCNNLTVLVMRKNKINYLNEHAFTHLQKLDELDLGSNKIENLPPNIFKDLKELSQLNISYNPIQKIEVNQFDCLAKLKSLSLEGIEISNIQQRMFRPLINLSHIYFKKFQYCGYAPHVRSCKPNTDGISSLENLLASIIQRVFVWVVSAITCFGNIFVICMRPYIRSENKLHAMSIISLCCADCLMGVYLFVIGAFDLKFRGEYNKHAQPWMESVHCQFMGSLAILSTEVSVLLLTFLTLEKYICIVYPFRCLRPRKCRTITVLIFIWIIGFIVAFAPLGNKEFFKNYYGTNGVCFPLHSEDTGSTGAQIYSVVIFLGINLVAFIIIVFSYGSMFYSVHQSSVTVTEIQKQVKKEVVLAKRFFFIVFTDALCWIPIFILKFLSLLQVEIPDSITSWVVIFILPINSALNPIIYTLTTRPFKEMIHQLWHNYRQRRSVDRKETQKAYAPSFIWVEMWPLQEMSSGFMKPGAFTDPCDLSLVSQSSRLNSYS
# human RXFP2 [3] = biological target: T3, human RXFP2 (human, UniProt Q8WXD0 1-754)
# T3 sequence (Q8WXD0 whole entry): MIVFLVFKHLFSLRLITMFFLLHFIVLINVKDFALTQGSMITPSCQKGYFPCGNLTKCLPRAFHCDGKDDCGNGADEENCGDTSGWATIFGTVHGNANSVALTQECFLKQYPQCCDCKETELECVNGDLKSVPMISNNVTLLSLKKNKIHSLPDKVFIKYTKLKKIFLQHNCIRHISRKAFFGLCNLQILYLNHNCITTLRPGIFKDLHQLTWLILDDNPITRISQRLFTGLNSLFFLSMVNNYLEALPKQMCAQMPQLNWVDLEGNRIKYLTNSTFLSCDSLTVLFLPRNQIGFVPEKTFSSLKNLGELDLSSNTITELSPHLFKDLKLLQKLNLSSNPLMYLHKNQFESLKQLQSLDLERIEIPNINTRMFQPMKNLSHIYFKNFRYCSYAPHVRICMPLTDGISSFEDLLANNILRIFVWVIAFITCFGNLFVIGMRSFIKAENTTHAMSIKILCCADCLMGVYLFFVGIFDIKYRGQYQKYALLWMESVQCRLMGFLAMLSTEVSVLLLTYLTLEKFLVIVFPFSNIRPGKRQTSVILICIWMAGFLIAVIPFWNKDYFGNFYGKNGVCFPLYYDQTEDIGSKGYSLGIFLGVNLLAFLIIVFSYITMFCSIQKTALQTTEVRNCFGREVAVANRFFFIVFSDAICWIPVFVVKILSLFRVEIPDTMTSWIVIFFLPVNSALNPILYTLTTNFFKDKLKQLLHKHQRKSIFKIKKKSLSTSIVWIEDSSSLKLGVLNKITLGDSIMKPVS
# human RXFP1 [4] = biological target: T1, human RXFP1; remark: listed apart in the source
# mouse RXFP1 [5] = biological target: T2, mouse RXFP1; remark: listed apart in the source
# human RXFP2 [6] = biological target: T3, human RXFP2; remark: listed apart in the source
Binder,"EC50 hRXFP1 (M), cAMP HTRF assay (human RXFP1 [1])","EC50 mRXFP1 (M), cAMP HTRF assay (mouse RXFP1 [2])","EC50 hRXFP2 (M), cAMP HTRF assay (human RXFP2 [3])","EC50 hRXFP1 (M), cAMP HTRF assay (human RXFP1 [4])","EC50 mRXFP1 (M), cAMP HTRF assay (mouse RXFP1 [5])","EC50 hRXFP2 (M), cAMP HTRF assay (human RXFP2 [6])"
RELAX0111 (Fc fusion) chain 1: DKTHTCPPCPAPEFEGGPSVFLFPPKPKDTLMISRTPEVTCVVVDVSHEDPEVKFNWYVDGVEVHNAKTKPREEQYNSTYRVVSVLTVLHQDWLNGKEYKCKVSNKALPASIEKTISKAKGQPREPQVYTLPPCREEMTKNQVSLWCLVKGFYPSDIAVEWESNGQPENNYKTTPPVLDSDGSFFLYSKLTVDKSRWQQGNVFSCSVMHEALHNHYTQKSLSLSPGGGGGGSQLYSALANKCCHVGCTKRSLARFC chain 2: DKTHTCPPCPAPEFEGGPSVFLFPPKPKDTLMISRTPEVTCVVVDVSHEDPEVKFNWYVDGVEVHNAKTKPREEQYNSTYRVVSVLTVLHQDWLNGKEYKCKVSNKALPASIEKTISKAKGQPREPQVYTLPPCREEMTKNQVSLWCLVKGFYPSDIAVEWESNGQPENNYKTTPPVLDSDGSFFLYSKLTVDKSRWQQGNVFSCSVMHEALHNHYTQKSLSLSPGAAPAPAPAPAPAPAGSSWMEEVIKLCGRELVRAQIAICGMSTWS,1.93e-09 M,1.24e-09 M,> 6.06e-08 M,,,
RELAX0039 (Fc fusion) chain 1: DKTHTACPPCPAPEFEGGPSVFLFPPKPKDTLMISRTPEVTCVVVDVSHEDPEVKFNWYVDGVEVHNAKTKPREEQYNSTYRVVSVLTVLHQDWLNGKEYKCKVSNKALPASIEKTISKAKGQPREPQVYTLPPCREEMTKNQVSLWCLVKGFYPSDIAVEWESNGQPENNYKTTPPVLDSDGSFFLYSKLTVDKSRWQQGNVFSCSVMHEALHNHYTQKSLSLSPGGGGGSGGGGSGGGGSGGGGGSQLYSALANMCCHVGCTKRSLARFC chain 2: DKTHTCPPCPAPEFEGGPSVFLFPPKPKDTLMISRTPEVTCVVVDVSHEDPEVKFNWYVDGVEVHNAKTKPREEQYNSTYRVVSVLTVLHQDWLNGKEYKCKVSNKALPASIEKTISKAKGQPREPQVCTLPPSREEMTKNQVSLSCAVKGFYPSDIAVEWESNGQPENNYKTTPPVLDSDGSFFLVSKLTVDKSRWQQGNVFSCSVMHEALHNHYTQKSLSLSPGGGGGSGGGGSGGGGSGGGGGSSWMEEVIKLCGRELVRAQIAICGMSTWS,,,,6.54e-11 M,4.25e-11 M,1.08e-07 M
RELAX0052 (Fc fusion) chain 1: DKTHTACPPCPAPEFEGGPSVFLFPPKPKDTLMISRTPEVTCVVVDVSHEDPEVKFNWYVDGVEVHNAKTKPREEQYNSTYRVVSVLTVLHQDWLNGKEYKCKVSNKALPASIEKTISKAKGQPREPQVYTLPPCREEMTKNQVSLWCLVKGFYPSDIAVEWESNGQPENNYKTTPPVLDSDGSFFLYSKLTVDKSRWQQGNVFSCSVMHEALHNHYTQKSLSLSPGGGGGSGGGGSGGGGSGGGGGSQLYSALANKCCHVGCTKESLARFC chain 2: DKTHTCPPCPAPEFEGGPSVFLFPPKPKDTLMISRTPEVTCVVVDVSHEDPEVKFNWYVDGVEVHNAKTKPREEQYNSTYRVVSVLTVLHQDWLNGKEYKCKVSNKALPASIEKTISKAKGQPREPQVCTLPPSREEMTKNQVSLSCAVKGFYPSDIAVEWESNGQPENNYKTTPPVLDSDGSFFLVSKLTVDKSRWQQGNVFSCSVMHEALHNHYTQKSLSLSPGGGGGSGGGGSGGGGSGGGGGSSWMEEVIKLCGRELVRAQIAICGMSTWS,,,,9.67e-11 M,5.69e-11 M,1.05e-07 M
RELAX0040 (Fc fusion) chain 1: DKTHTACPPCPAPEFEGGPSVFLFPPKPKDTLMISRTPEVTCVVVDVSHEDPEVKFNWYVDGVEVHNAKTKPREEQYNSTYRVVSVLTVLHQDWLNGKEYKCKVSNKALPASIEKTISKAKGQPREPQVYTLPPCREEMTKNQVSLWCLVKGFYPSDIAVEWESNGQPENNYKTTPPVLDSDGSFFLYSKLTVDKSRWQQGNVFSCSVMHEALHNHYTQKSLSLSPGGGGGSGGGGSGGGGSGGGGGSQLYSALANLCCHVGCTKRSLARFC chain 2: DKTHTCPPCPAPEFEGGPSVFLFPPKPKDTLMISRTPEVTCVVVDVSHEDPEVKFNWYVDGVEVHNAKTKPREEQYNSTYRVVSVLTVLHQDWLNGKEYKCKVSNKALPASIEKTISKAKGQPREPQVCTLPPSREEMTKNQVSLSCAVKGFYPSDIAVEWESNGQPENNYKTTPPVLDSDGSFFLVSKLTVDKSRWQQGNVFSCSVMHEALHNHYTQKSLSLSPGGGGGSGGGGSGGGGSGGGGGSSWMEEVIKLCGRELVRAQIAICGMSTWS,,,,5.92e-11 M,2.92e-11 M,> 1.27e-07 M
RELAX0041 (Fc fusion) chain 1: DKTHTACPPCPAPEFEGGPSVFLFPPKPKDTLMISRTPEVTCVVVDVSHEDPEVKFNWYVDGVEVHNAKTKPREEQYNSTYRVVSVLTVLHQDWLNGKEYKCKVSNKALPASIEKTISKAKGQPREPQVYTLPPCREEMTKNQVSLWCLVKGFYPSDIAVEWESNGQPENNYKTTPPVLDSDGSFFLYSKLTVDKSRWQQGNVFSCSVMHEALHNHYTQKSLSLSPGGGGGSGGGGSGGGGSGGGGGSQLYSALANHCCHVGCTKRSLARFC chain 2: DKTHTCPPCPAPEFEGGPSVFLFPPKPKDTLMISRTPEVTCVVVDVSHEDPEVKFNWYVDGVEVHNAKTKPREEQYNSTYRVVSVLTVLHQDWLNGKEYKCKVSNKALPASIEKTISKAKGQPREPQVCTLPPSREEMTKNQVSLSCAVKGFYPSDIAVEWESNGQPENNYKTTPPVLDSDGSFFLVSKLTVDKSRWQQGNVFSCSVMHEALHNHYTQKSLSLSPGGGGGSGGGGSGGGGSGGGGGSSWMEEVIKLCGRELVRAQIAICGMSTWS,,,,6.22e-11 M,3.17e-11 M,1.18e-07 M
RELAX0043 (Fc fusion) chain 1: DKTHTACPPCPAPEFEGGPSVFLFPPKPKDTLMISRTPEVTCVVVDVSHEDPEVKFNWYVDGVEVHNAKTKPREEQYNSTYRVVSVLTVLHQDWLNGKEYKCKVSNKALPASIEKTISKAKGQPREPQVYTLPPCREEMTKNQVSLWCLVKGFYPSDIAVEWESNGQPENNYKTTPPVLDSDGSFFLYSKLTVDKSRWQQGNVFSCSVMHEALHNHYTQKSLSLSPGGGGGSGGGGSGGGGSGGGGGSQLYSALANECCHVGCTKRSLARFC chain 2: DKTHTCPPCPAPEFEGGPSVFLFPPKPKDTLMISRTPEVTCVVVDVSHEDPEVKFNWYVDGVEVHNAKTKPREEQYNSTYRVVSVLTVLHQDWLNGKEYKCKVSNKALPASIEKTISKAKGQPREPQVCTLPPSREEMTKNQVSLSCAVKGFYPSDIAVEWESNGQPENNYKTTPPVLDSDGSFFLVSKLTVDKSRWQQGNVFSCSVMHEALHNHYTQKSLSLSPGGGGGSGGGGSGGGGSGGGGGSSWMEEVIKLCGRELVRAQIAICGMSTWS,,,,7.98e-11 M,5.58e-11 M,> 1.58e-07 M
RELAX0053 (Fc fusion) chain 1: DKTHTACPPCPAPEFEGGPSVFLFPPKPKDTLMISRTPEVTCVVVDVSHEDPEVKFNWYVDGVEVHNAKTKPREEQYNSTYRVVSVLTVLHQDWLNGKEYKCKVSNKALPASIEKTISKAKGQPREPQVYTLPPCREEMTKNQVSLWCLVKGFYPSDIAVEWESNGQPENNYKTTPPVLDSDGSFFLYSKLTVDKSRWQQGNVFSCSVMHEALHNHYTQKSLSLSPGGGGGSGGGGSGGGGSGGGGGSQLYSALANKCCHVGCTKHSLARFC chain 2: DKTHTCPPCPAPEFEGGPSVFLFPPKPKDTLMISRTPEVTCVVVDVSHEDPEVKFNWYVDGVEVHNAKTKPREEQYNSTYRVVSVLTVLHQDWLNGKEYKCKVSNKALPASIEKTISKAKGQPREPQVCTLPPSREEMTKNQVSLSCAVKGFYPSDIAVEWESNGQPENNYKTTPPVLDSDGSFFLVSKLTVDKSRWQQGNVFSCSVMHEALHNHYTQKSLSLSPGGGGGSGGGGSGGGGSGGGGGSSWMEEVIKLCGRELVRAQIAICGMSTWS,,,,7.15e-11 M,4.36e-11 M,> 1.79e-07 M
